Experimental data from article PMC10210826.

Biological target: N-terminal biotinylated tetradecapeptide of the C-terminal portion of the SARS-CoV-2 E protein (SARS-CoV-2)
Assay: SPR

## PDZ2 domain of human ZO1 (ZO1-PDZ2 domain) (domain or fragment)
  Kd: 2.1 µM
